We go through ten molecules from patent US20220031841A1 (ABSCI, published 2022).

Holding throughout (test): HuProt protein array, F635 z-score
Assay [1] concerns the target T1, Src homology 2 (SH2) domain containing inositol polyphosphate 5-phosphatase 1 (SHIP1) (human, UniProt Q92835 1-1189).
T1 construct: The array carries full-length recombinant human proteins expressed in S. cerevisiae, purified and printed on glass slides; also called INPP5D; INPP5D/SHIP1
T1 sequence: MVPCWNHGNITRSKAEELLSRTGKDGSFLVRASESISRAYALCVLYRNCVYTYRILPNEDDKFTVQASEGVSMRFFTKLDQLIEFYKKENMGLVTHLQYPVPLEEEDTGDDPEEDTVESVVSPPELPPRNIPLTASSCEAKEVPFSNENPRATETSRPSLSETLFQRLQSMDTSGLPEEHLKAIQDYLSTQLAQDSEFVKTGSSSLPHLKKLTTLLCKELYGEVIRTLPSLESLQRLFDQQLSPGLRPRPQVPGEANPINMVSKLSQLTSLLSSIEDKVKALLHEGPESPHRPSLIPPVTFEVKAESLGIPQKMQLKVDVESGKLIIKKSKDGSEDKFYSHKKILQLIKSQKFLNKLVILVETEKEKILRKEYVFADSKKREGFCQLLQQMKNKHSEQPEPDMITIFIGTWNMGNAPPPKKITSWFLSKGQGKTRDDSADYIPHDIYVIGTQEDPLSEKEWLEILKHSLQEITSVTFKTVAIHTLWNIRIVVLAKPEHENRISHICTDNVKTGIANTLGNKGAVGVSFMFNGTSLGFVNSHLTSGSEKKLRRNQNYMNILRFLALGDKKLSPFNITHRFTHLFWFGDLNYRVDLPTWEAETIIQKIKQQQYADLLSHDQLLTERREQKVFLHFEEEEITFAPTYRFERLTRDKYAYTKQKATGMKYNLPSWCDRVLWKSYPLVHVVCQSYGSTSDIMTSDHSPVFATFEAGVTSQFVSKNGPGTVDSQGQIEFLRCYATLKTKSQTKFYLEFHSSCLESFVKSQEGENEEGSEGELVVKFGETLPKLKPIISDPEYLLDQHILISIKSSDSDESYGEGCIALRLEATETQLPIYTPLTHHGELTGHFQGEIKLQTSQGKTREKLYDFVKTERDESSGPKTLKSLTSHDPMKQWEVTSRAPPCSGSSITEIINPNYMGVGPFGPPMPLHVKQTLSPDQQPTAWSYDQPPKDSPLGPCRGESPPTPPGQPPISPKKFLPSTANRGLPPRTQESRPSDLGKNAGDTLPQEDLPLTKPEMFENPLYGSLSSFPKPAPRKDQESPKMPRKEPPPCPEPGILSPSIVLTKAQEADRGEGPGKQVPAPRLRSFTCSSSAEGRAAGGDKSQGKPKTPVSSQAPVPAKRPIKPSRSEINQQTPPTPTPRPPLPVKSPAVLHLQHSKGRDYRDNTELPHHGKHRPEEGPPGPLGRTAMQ
From the text:
(§1) Large scale protein arrays are versatile and sensitive platforms for antibody specificity evaluation. They can be used for the evaluation of protein binding or affinity reagents that are widely employed in research and clinical applications. The microarray used in our target identification experiment provides the largest number of unique, full-length, individually purified human proteins on a single microscope slide. This allows thousands of interactions to be profiled in a high-throughput manner. The hill-length recombinant proteins are expressed in the yeast S. cerevisiae, purified, and printed on glass slides in duplicate along with a set of control proteins (GST, BSA, histones, IgG, etc.). Such microarray is not restricted to a particular type of surface coating, although the default is glass coated with ultra-thin nitrocellulose film for the non-covalent, yet irreversible, capture of active proteins to the surface. Fourteen Protein arrays were used for the antibody cross-reactivity assay of the samples. The antibodies were probed at […] on the arrays and incubated at room temperature for 1 hour. After probing, the arrays were washed according to the protocol and probed with Alexa-647-anti-human IgG […] specific secondary antibodies under conditions optimized for signal detection. The antibody-antigen binding score was calculated for each protein represented on the array and expressed as z-scores.
(§2) Antibody samples are probed on native HuProt arrays at 1 μg/ml and incubated at room temperature for 1 hour. After probing, the arrays are washed according to the standard protocols and probed with Alexa-647-anti-human IgG Fc gamma specific secondary antibodies under conditions optimized for signal detection.
(§3) Z score is the average Z score of the duplicate spots of a given protein (each protein is printed in duplicate on a HuProt™ array). The Z score of each spot on a given array is calculated according to the equation: […]

The target in assay [2] is T2, Chromobox protein homolog 1 (CBX1) (human, UniProt P83916 1-185).
T2 construct: The array carries full-length recombinant human proteins expressed in S. cerevisiae; also called Human Chromobox protein homolog 1
Excerpt: as §1, §2, §3

The target in assay [3] is T3, Melanoma-associated antigen 3 (MAGE-A3) (human, UniProt P43357 1-314).
T3 construct: The array carries full-length recombinant human proteins expressed in S. cerevisiae; also called Human MAGE-A3
Excerpt: as §1, §2, §3

T2 sequence (P83916 whole entry): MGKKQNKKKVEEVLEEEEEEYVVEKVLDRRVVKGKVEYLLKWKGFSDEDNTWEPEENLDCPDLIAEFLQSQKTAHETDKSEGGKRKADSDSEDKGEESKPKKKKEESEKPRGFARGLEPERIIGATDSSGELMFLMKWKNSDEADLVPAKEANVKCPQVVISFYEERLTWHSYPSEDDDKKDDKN
T3 sequence (P43357 whole entry): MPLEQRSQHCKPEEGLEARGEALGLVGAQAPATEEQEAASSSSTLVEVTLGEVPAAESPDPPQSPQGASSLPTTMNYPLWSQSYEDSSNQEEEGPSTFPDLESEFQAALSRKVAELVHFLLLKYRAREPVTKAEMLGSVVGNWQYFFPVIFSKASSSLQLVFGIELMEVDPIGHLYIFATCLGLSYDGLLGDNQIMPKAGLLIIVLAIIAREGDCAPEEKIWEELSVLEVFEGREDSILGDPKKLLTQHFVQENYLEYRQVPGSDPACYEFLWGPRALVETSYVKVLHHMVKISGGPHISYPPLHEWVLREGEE

B1: TMEL1002 (antibody, V domains shown)
VH: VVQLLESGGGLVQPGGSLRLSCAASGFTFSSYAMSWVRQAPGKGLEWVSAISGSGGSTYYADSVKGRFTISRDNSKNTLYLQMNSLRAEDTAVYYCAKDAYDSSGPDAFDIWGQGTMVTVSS
VL: ASALTQPASVSGSPGQSITISCTGTSSDVGDYNYVSWYQQHPGKAPKLMIYDVSNRPSGVSNRFSGSKSGNTASLTISGLQAEDEADYYCSSYTSSSTLVFGGGTKLTVLG
With B1, the binding result in assay [1], in assay [2] and in assay [3] was “no binding (tested: 1 µg/ml)” in each case.

B2: TMEL1007 (antibody, V domains shown)
VH: HVHLVQSGAEVKKPGSSVKVSCTASGGSFSSNPISWVRQAPGHGLQWMGGFVPLFGTANYAPSFHGRLTITADESTSTTYMELNSLRSEDSAVYYCARDFNWNFDFWGQGTLVTVSS
VL: QSALTQPASVSGSPGQSITISCTGTSSDIGSYNLVSWYRQYPGKAPKLMIYEVNKRPSGVSNRFSGSKSGNTASLTISGLQAEDEADYYCCSYAGTTTFVIFGRGTKLTVLG
notes: It was detected with an anti-human IgG Fc gamma secondary antibody
As to B2, the binding result in assay [1], in assay [2] and in assay [3] was “no binding (tested: 1 µg/ml)” throughout.

B3: TMEL1009 (antibody, V domains shown)
VH: PVQLVQSGAEVKKPGSSVKVSCRASGGTFSNYGLNWVRQAPGQGLEWMGGIIPIFGSVNYAQKFQDRVTITADESTSTTYMDLNSLRSEDTAVYYCATERGHNMERAFDFWGQGTLVTVSS
VL: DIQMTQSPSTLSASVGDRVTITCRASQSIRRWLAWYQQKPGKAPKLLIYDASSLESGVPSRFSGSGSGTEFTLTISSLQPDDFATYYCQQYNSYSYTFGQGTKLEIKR
Consider B3, for which the binding result in assay [1] and in assay [2] was “no binding (tested: 1 µg/ml)” in each case.

B4: TMEL1011 (antibody, V domains shown)
VH: PVQLVQSGAEVKKPGSSVKVSCKASGGTFSSYSFNWVRQAPGQGLEWMARIIPILGLANYAQKFQGRVTLTADESTSTAYMELSSLRSEDTAIFYCAGMVLGQLGFDPWGQGTLVTVSS
VL: QFMLTQPHSVSESPGRTVTISCTRSSGSIARNYVHWYQHRPGSSPTTVIYEDDQRPSGVPDRFSGSIDSSSNSASLTISGLKPEDEADYFCQSYDSNIWVFGGGTKLTVLG
notes: as for B2
Turning to B4, the binding result in assay [1], in assay [2] and in assay [3] was “no binding (tested: 1 µg/ml)” throughout.

B5: TMEL1004 (antibody, V domains shown)
VH: QITLKESGPTLVKPTQTLTLTCTFSGFSLNTPGVGVGWIRQPPGKALEWLALIYWDDDKRYRPSLESRLTITKDTSKNHVVLTMTNMDPVDTATYFCAHKNLQYSEWFDPWGQGTLVIVSS
VL: EMVLTQSPATLSLSPGERATLSCRASQSVSRNSLAWYQQRPGQTPRLLIYGASSRATGIPDRFSGSGSGTDFTLIISRLEPEDFAVYFCLQYDESPYTFGQGAKLEIKR
For the molecule B5, the binding result in assay [1], in assay [2] and in assay [3] was “no binding (tested: 1 µg/ml)” throughout.

B6: TMEL1012 (antibody, V domains shown)
VH: PLQLQESGPGLVKPSETLSLTCTVSGDSITTTYYWGWIRQPPGKGLEWIASIYFTGSTFHNPSLKSRVTMSVDTSKNQFSLNLSSVTAADTAVYYCARRVGNWNYVWFDPWGQGTLVSVSS
VL: AYVLTQPPSVSVAPGQTARMTCGGNNIGSKSVHWYRQRPGQAPVLVVYDDTDRPSGIPERFSGSNSGNTATLTISRVEAGDEADYYCQVWDTNSDHVVFGGGTKLTVLG
As to B6, the binding result in assay [1], in assay [2] and in assay [3] was “no binding (tested: 1 µg/ml)” in each case.

B7: TMEL1013 (antibody, V domains shown)
VH: PVQLVQSGAEVKKPGSSVKVSCKASGGTFSSYTINWVRQAPGQGLEWMGRIIPILGVANYAQKFQGRVTITADKSTSTAYMDLSSLRSEDTAVYYCAREWERAFDYWGQGTLVTVSS
VL: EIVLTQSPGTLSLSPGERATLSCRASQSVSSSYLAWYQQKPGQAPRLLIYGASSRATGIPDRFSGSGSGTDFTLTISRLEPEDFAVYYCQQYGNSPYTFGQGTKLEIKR
For the molecule B7, the binding result in assay [1] and in assay [2] was “no binding (tested: 1 µg/ml)” each time.

B8: TMEL1008 (antibody, V domains shown)
VH: QVQLVQSGAEVKKPGSSVKVSCKASGGTFNRDGIIWVRQAPGQGLEWMGRIIPILGIANYAQKFQGRVTIIADKSTSTAYMELSSLRSEDTAVYYCARESEVGRGMDVWGQGTTVTVSS
VL: ASALTQPASVSGSPGQSITISCTGTSSDVGDYNYVSWYQQHPGKAPKLMIYDVSNRPSGVSHRFSGSKSGNTASLTISGLQAEDEADYYCSSYTISSTLGVFGPGTKVTVLG
notes: as for B2
Consider B8, for which the binding result in assay [1] and in assay [2] was “no binding (tested: 1 µg/ml)” each time.

B9: TMEL1010 (antibody, V domains shown)
VH: QVQLVQSGAEVKKPGASVKVSCKASGYTFSSYGISWVRQAPGQGLEWMGWISAYNGNTNYAKKLQGRVTMTTDTSTSTAYLELRSLRSDDTAVYYCARGDGPFDYWGQGTLVTVSS
VL: EIVMTQSPATLSVSPGERATLSCWASQSVSSSLAWYQQKPGQAPRLLMYGASNRATGIPARFSGSGSGTEFTLTISSLQSEDFAVYYCQQYNKWPPDTFGQGTKLEIKR
notes: as for B2
On to B9, for which the binding result in assay [1], in assay [2] and in assay [3] was “no binding (tested: 1 µg/ml)” throughout.

B10: TMEL1014 (antibody, V domains shown)
VH: SVQLVESGGGVVQPGRSLRLSCAASGFTFSSYTMHWVRQAPGKGLEWVALISYDGSNKYYADSVKGRFTISRDNPKNTLYLQMNSLRVEDTAVYYCARDWTLGYWGQGTLVTVSS
VL: VSSELTQDPAVSVALGQTVRITCQGDSLRNYYANWYQQKPGQAPILVIYDKNNRPSGIPDRFSGSSSGNTASLTITGAQAEDEADYYCNSRDSSGYHLVFGGGTKLTVLG
notes: as for B2
As to B10, the binding result in assay [1] and in assay [2] was “no binding (tested: 1 µg/ml)” in each case.
